Here are results for 5 molecules from US20240207405A1, “IL2 TETHERED TO ITS RECEPTOR IL2RBETA AND PORE-FORMING PROTEINS AS A PLATFORM TO ENHANCE IMMUNE CELL ACTIVITY” (The General Hospital Corporation, priority 2021, published 2024).

As a reminder, the IC50 is the concentration at which inhibition is half-maximal.

For series [1] the following is noted: cited from earlier work.
The subject of the next series is PC-3 cells. The class given is cell-based, human. From the text: Interleukins IL4, IL7, IL9, IL15 and IL21 belong to the same family as IL2, and use the same common IL2Rg. They all have their own private receptors, except for IL2 and IL15, which use IL2Rβ in addition to their own alpha receptors. […] Thus the entire cytoplasmic domain of IL21R was cloned then added Head-to-Tail to the C-terminal of IL2Rβ in the chimera CIRB. […] As shown herein, it was possible to emulate the activation signals from multiple cytokines that activate NK cells via different receptors by using only one ligand and a hybrid receptor.

Series [2] has as its system NK92^CIRB cells. In words: Growth of NK92^CIRB cells in the presence of lactate dehydrogenase inhibitor R-GNE140 (cell count). In kind it is cell-based, human. As to conditions: total cell count, FIG. 11, read-out: IC50 of R-GNE140 for inhibiting growth of NK92^CIRB cells. The procedure: (§1) The ability of NK92^CIRB and NK92^CIRB21 cells to grow in the presence of the lactate dehydrogenase inhibitor R-GNE140 was tested. Cells were incubated with increasing concentrations of R-GNE140 and total number of cells were counted.

The subject of series [3] is NK92^CIRB21 cells. Kind of series: Growth of NK92^CIRB21 cells in the presence of lactate dehydrogenase inhibitor R-GNE140 (cell count). The class given is cell-based, human. As to conditions: total cell count, FIG. 11, read-out: IC50 of R-GNE140 for inhibiting growth of NK92^CIRB21 cells. The procedure: as §1
The subject of a further series is NK92^CIRB21-icasp9 cells. Kind of series: Killing of icasp9-expressing NK92 cells by dimerizer drug AP1093. In kind it is cell-based, human. As for the experimental part:
(§2) L-Holin killing assays—Cells selected cell for L-Holin were tested in a 24 well plate using 32,000 cells per well. 24 hours later doxycycline was added at 1 μg/ml for 4-5 days. Cells selected for icasp9 were tested in a 24 well plate using 32,000 cells per well. 24 hours later dimerizer drug AP1093 was added at 2 or 10 nM for 4-5 days. Surviving cells were quantified using crustal violet assay as described in (Jounaidi et al, Cancer Research 2017).
Next, we examined whether high doses of AP1093 could completely kill NK92^CIRB21−icasp9 cells.

For another series, the system named is glioblastoma GL261 cells. Kind of series: L-Holin killing assay in GL261 clones (doxycycline induction, crystal violet). The class given is cell-based, mouse. The procedure: L-Holin GL261 and icasp9 GL261 clones were selected as single cells by extreme dilution in 96 well plates. Clones were grown and evaluated for their response to dox (L-Holin) or AP1093 (icasp9).
as §2
Mouse glioblastoma cell line GL261 was infected by a retrovirus expressing L-Holin. Clones were selected, L-Holin expression was induced with doxycycline, and cell viability was determined. Four clones were tested: 2 clones with high expression levels of L-Holin (Clone 1, Clone 5) and 2 clones with low expression levels of L-Holin (Clone 6, Clone 9).
We compared the ability of L-Holin to trigger cell death to that of icasp9 in GL261 cells. GL261 cells were infected by a retrovirus expressing L-Holin or a retrovirus expressing icasp9. Clones were selected, L-Holin expression was induced with doxycycline, and cell viability was determined. […]

The test system of series [4] is NK92^CIRB21 cells. In words: L-Holin killing of NK92^CIRB21 cells (doxycycline induction, cell count). The class given is cell-based, human. Particulars: NK92^CIRB21 cells expressing L-Holin, total cell count, FIG. 5B / FIG. 12. As for the experimental part:
NK92^CIRB21 pool selection—NK92^CIRB21 cells expressing L-Holin were selected with puromycin and NK92^CIRB21 cells expressing icasp9 and GFP were sorted by flow cytometry for GFP.
as §2
Mouse glioblastoma cell line GL261 was infected by a retrovirus expressing L-Holin. Clones were selected, L-Holin expression was induced with doxycycline, and cell viability was determined. […]
Expression of L-Holin in NK92^CIRB21+Holin cells was induced with doxycycline. Total number of cells were counted after doxycycline treatment. […] After 13 days of growth in the absence of doxycycline, total number of cells were counted. Untreated cells were counted as a control.
The ability of L-holin to trigger death of NK92^CIRB cells and NK92^CIRB21 cells was tested. […] Total number of cells were counted after 13 days of growth in the absence of doxycycline. Untreated cells were counted as a control. […]

Series [5] relates to NK92^CIRB cells. Kind of series: L-holin killing of NK92^CIRB cells (doxycycline induction, cell count). The class given is cell-based, human. As to conditions: total cell count, FIG. 12. As for the experimental part: The ability of L-holin to trigger death of NK92^CIRB cells and NK92^CIRB21 cells was tested. L-bolin expression was induced in NK92^CIRB cells and NK92^CIRB21 cells with doxycycline. Cells were washed to remove doxycycline and then cells were cultured for 13 days. Total number of cells were counted after 13 days of growth in the absence of doxycycline. Untreated cells were counted as a control. […] This sensitivity is consistent with the reliance of NK92^CIRB21 cells on mitochondria, which are lysed by L-holin during cell killing.

Consider IL2: immunostimulatory cytokine, for which, in series [1], the “half-life of IL2 in vivo” value is given as “less than 10 min”.

As to “IL21: soluble interleukin of the IL2 family added to NK92^CIRB cells”, the “effect of soluble interleukin on cytotoxicity of NK92^CIRB against PC-3 cells” value with PC-3 cells was “dramatically enhance cytotoxicity”.

In the case of `O=C1N[C@](c2ccc(N3CCOCC3)cc2)(c2ccsc2)CC(O)=C1Sc1ccccc1Cl` [R-GNE140], the IC50 in the series on NK92^CIRB cells [2] stood at 4.7 µM; in the series on NK92^CIRB21 cells [3], 10.6 µM.

`CC[C@H](C(=O)N1CCCC[C@H]1C(=O)O[C@H](CCc1ccc(OC)c(OC)c1)c1cccc(OCC(=O)NCCNC(=O)COc2cccc([C@@H](CCc3ccc(OC)c(OC)c3)OC(=O)[C@@H]3CCCCN3C(=O)[C@@H](CC)c3cc(OC)c(OC)c(OC)c3)c2)c1)c1cc(OC)c(OC)c(OC)c1` [AP1093]: in the series on NK92^CIRB21-icasp9 cells (10 nM AP1093, FIG. 9A), the “viability of NK92^CIRB21-icasp9 cells in the presence of AP1093” value is “remained viable”. The “viability of NK92 cells expressing GFP and icasp9 in AP1093” value with NK92^CIRB21-icasp9 cells (10 nM AP1093, after 5 days, GFP detection by immunofluorescence, FIG. 9B) is recorded as “viable in 10 nM of AP1093 even after 5 days”.

B1: L-Holin: pore-forming holin protein from bacteriophage, SEQ ID NO: 1, expressed under a tetracycline regulated promoter (protein)
chain: MPEKHDLLAAILAAKEQGIGAILAFAMAYLRGRYNGGAFTKTVIDATMCAIIAWFIRDLLDFAGLSSNLAYITSVFIGYIGTDSIGSLIKRFAAKKAGVEDGRNQ
modifications: Enterobacteriaceae
Take B1: the “triggering of cell death compared with icasp9 expressed at low levels” value in the series with glioblastoma GL261 cells (GL261 cells, icasp9 Clone 2, 2 nM or 10 nM AP1903, FIGS. 7A-7B) was “more effective at triggering cell death than icasp9 expressed at low levels”. Further, the “cell death as a result of L-Holin expression” value with glioblastoma GL261 cells (GL261 clones with high (1, 5) and low (6, 9) L-Holin expression, doxycycline induced, FIG. 5A) is given as “majority, if not all, of GL261 cells died”. In addition, the “detectable cells after L-Holin induction and 13 days of growth in the absence of doxycycline” value is “remained undetectable” in the series with NK92^CIRB21 cells [4]; “undetectable” with NK92^CIRB21 cells [4] (listed as L-holin); “some NK92^CIRB cells survived and were detectable” in the series on NK92^CIRB cells [5].
